The values below come from US20100043097A1 (CARNEGIE INSTITUTION OF WASHINGTON, published 2010).

To fix the notation:
B1: BRI1-GFP (receptor, Arabidopsis thaliana, UniProt O22476 24-1196, looked up)
chain: FQASPSQSLYREIHQLISFKDVLPDKNLLPDWSSNKNPCTFDGVTCRDDKVTSIDLSSKPLNVGFSAVSSSLLSLTGLESLFLSNSHINGSVSGFKCSASLTSLDLSRNSLSGPVTTLTSLGSCSGLKFLNVSSNTLDFPGKVSGGLKLNSLEVLDLSANSISGANVVGWVLSDGCGELKHLAISGNKISGDVDVSRCVNLEFLDVSSNNFSTGIPFLGDCSALQHLDISGNKLSGDFSRAISTCTELKLLNISSNQFVGPIPPLPLKSLQYLSLAENKFTGEIPDFLSGACDTLTGLDLSGNHFYGAVPPFFGSCSLLESLALSSNNFSGELPMDTLLKMRGLKVLDLSFNEFSGELPESLTNLSASLLTLDLSSNNFSGPILPNLCQNPKNTLQELYLQNNGFTGKIPPTLSNCSELVSLHLSFNYLSGTIPSSLGSLSKLRDLKLWLNMLEGEIPQELMYVKTLETLILDFNDLTGEIPSGLSNCTNLNWISLSNNRLTGEIPKWIGRLENLAILKLSNNSFSGNIPAELGDCRSLIWLDLNTNLFNGTIPAAMFKQSGKIAANFIAGKRYVYIKNDGMKKECHGAGNLLEFQGIRSEQLNRLSTRNPCNITSRVYGGHTSPTFDNNGSMMFLDMSYNMLSGYIPKEIGSMPYLFILNLGHNDISGSIPDEVGDLRGLNILDLSSNKLDGRIPQAMSALTMLTEIDLSNNNLSGPIPEMGQFETFPPAKFLNNPGLCGYPLPRCDPSNADGYAHHQRSHGRRPASLAGSVAMGLLFSFVCIFGLILVGREMRKRRRKKEAELEMYAEGHGNSGDRTANNTNWKLTGVKEALSINLAAFEKPLRKLTFADLLQATNGFHNDSLIGSGGFGDVYKAILKDGSAVAIKKLIHVSGQGDREFMAEMETIGKIKHRNLVPLLGYCKVGDERLLVYEFMKYGSLEDVLHDPKKAGVKLNWSTRRKIAIGSARGLAFLHHNCSPHIIHRDMKSSNVLLDENLEARVSDFGMARLMSAMDTHLSVSTLAGTPGYVPPEYYQSFRCSTKGDVYSYGVVLLELLTGKRPTDSPDFGDNNLVGWVKQHAKLRISDVFDPELMKEDPALEIELLQHLKVAVACLDDRAWRRPTMVQVMAMFKEIQAGSGIDSQSTIRSIEDGGFSTIEMVDMSIKEVPEGKL
notes: Expressed in transgenic Arabidopsis; solubilised microsomal proteins used for co-immunoprecipitation; also called BRI1-GFP protein expressed from the BRI1 promoter; not shown: GFP tag
B2: BRK1-myc (enzyme)
chain: GCCQSLFSGDNPLGKDGVQPQPLSQNNHGGATTADNGGSGGASGVGGGGGGGGIPSFSEFSFADLKAATNNFSSDNIVSESGEKAPNLVYKGRLQNRRWIAVKKFTKMAWPEPKQFAEEAWGVGKLRHNRLANLIGYCCDGDERLLVAEFMPNDTLAKHLFHWENQTIEWAMRLRVGYYIAEALDYCSTEGRPLYHDLNAYRVLFDEDGDPRLSCFGLMKNSRDGKSYSTNLAYTPPEYLRNGRVTPESVTYSFGTVLLDLLSGKHIPPSHALDMIRGKNIILLMDSHLEGKFSTEEATVVVELASQCLQYEPRERPNTKDLVATLAPLQTKSDVPSYVMLGIKKQEEAPSTPQRPLSPLGEACSRMDLTAIHQILVMTHYRDDEGTNELSFQEWTQQMKDMLDARKRGDQSFREKDFKTAIDCYSQFIDVGTMVSPTVFGRRSLCYLLCDQPDAALRDAMQAQCVYPDWPTAFYMQSVALAKLNMNTDAADMLNEAAQLEEKRQRGGRGS
notes: Full-length BRK1 with C-terminal 4x Myc tag, expressed from the 35S promoter in Arabidopsis; also called BRK1-myc protein; not shown: 4x Myc tag of the pGWB17 vector

One test deals with T1, Protein A bead alone (UniProt P38507 37-477).
T1 construct: IP control without antibody; also called Protein A Sepharose beads
As to the kind of experiment: immunoprecipitation control from microsomal proteins, anti-GFP immunoblot. The method, then: Microsomal proteins (Input, lane 1) from det2 mutant plants expressing BRI1-GFP under the control of BRI1 promoter were immunoprecipitated (IP) using polyclonal anti-BRK1 antibodies affinity-purified using an BRK1 antigen column (lane 3). Protein A bead alone was used as IP control (lane 2). Immunoblots were probed using anti-GFP antibodies. BRI1-GFP can be pulled down by anti-BRI1 antibody but not by protein A bead.
All procedures were performed at 4° C. Rosette leaves of 3-week-old Arabidopsis plants were homogenized with mortar and pestle in the grinding buffer (20 mM HEPES, pH 7.5, 40 mM KCl, 250 mM sucrose, 5 mM MgCl₂ and protein inhibitors) at a ratio of 3 mL buffer per gram of tissue. Homogenate was filtered through 2 layers of Miracloth (CalBiochem, La Jolla, Calif.), and centrifuged at 10,000 g for 10 minutes. The supernatant was further centrifuged at 100,000 g for 60 min to pellet the microsomal fraction. Microsomes were re-suspended in 0.5 mL grinding buffer and sonicated for 10 sec. Triton X-100 was added to a final concentration of 1%. After mixing, the extracts were centrifuged at 20,000 g for 10 min. Supernatant was diluted 5 times with grinding buffer to reduce Triton X-100 to 0.2%. […] Samples were analyzed by SDS-PAGE and immunoblotting.
In general terms: A western blot detects proteins with antibodies after separation by electrophoresis.

The test “BRI1-GFP” has as its target B1. The experiment in a line: co-immunoprecipitation with anti-GFP antibodies after 100 nM brassinolide for 30 min, anti-myc immunoblot (FIG. 2D).

On to B1, for which the binding result with Protein A bead alone was “no binding”. B2: the “amount of co-immunoprecipitated BRK1-myc after BR treatment relative to the untreated sample” value with BRI1-GFP is 46 % of the untreated sample.
